From the supplement of paper PMC7877785
± gives the uncertainty stated by the source.

Assay: self-splicing fitness, log relative to wild type (ln ratio); higher = more splicing; Tetrahymena group I intron in knt gene, E. coli kanamycin selection, DiMSum; sequences stand for … in CUCUCU…GGAGGGAAAAGUUAUCAGGCAUGCACCUGGUAGCUAGUCUUUAAACCAAUAGAUUGCAUCGGUUUAAAAGGCAAGACCGUCAAAUUGCGGGAAAGGGGUCAACAGCCGUUCAGUACCAAGUCUCAGGGGAAACUUUGAGAUGGCCUUGCAAAGGGUAUGGUAAUAAGCUGACGGACAUGGUCCUAACCACGCAGCCAAGUCCUAAGUCAACAGAUCUUCUGUUGAUAUGGAUGCAGUUCACAGACUAAAUGUCGGUCGGGGAAGAUGUAUUCUUCUCAUAAGAUAUAGUCGGACCUCUCCUUAAUGGGAGCUAGCGGAUGAAGUGAUGCAACACUGGAGCCGCUGGGAACUAAUUUGUAUGCGAAAGUAUAUUGAUUAGUUUUGGAGUACUCGUGGUCG
Procedure, shortened: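 DiMSum derived fitness as the error-weighted combination of fold changes across replicates, kanamycin versus no kanamycin, normalised to wild type. E. coli BL21(DE3) held the library, which randomised all eight P1ex-region intron nucleotides within the knt kanamycin-resistance gene on pET-22b(+). Six replicate transformations grew overnight at 37°C or 30°C on LB agar with or without 25 μg/mL kanamycin, also containing 100 μg/mL carbenicillin, 50 μM IPTG and 0.2% rhamnose, and pooled colonies were amplicon-sequenced on an Illumina HiSeq 2500.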

## UCAGAGCAAUAUUACGUCAU
30 °C
  self-splicing fitness (ln): -3.84 ± 0.35

## CGCCAGCAAUAUUACGAAUA
30 °C
  self-splicing fitness (ln): -3.44 ± 0.34

## CUGGAGCAAUAUUACGUUUC
30 °C
  self-splicing fitness (ln): -3.92 ± 0.31
37 °C
  self-splicing fitness (ln): -2.38 ± 0.31

## UCCGAGCAAUAUUACGCUCU
30 °C
  self-splicing fitness (ln): -3.31 ± 0.4

## UUAUAGCAAUAUUACGCAAG
30 °C
  self-splicing fitness (ln): -1.35 ± 0.16
37 °C
  self-splicing fitness (ln): -1.89 ± 0.19

## ACACAGCAAUAUUACGAUAG
30 °C
  self-splicing fitness (ln): -2.96 ± 0.074
37 °C
  self-splicing fitness (ln): -1.62 ± 0.069

## ACGCAGCAAUAUUACGCGCG
30 °C
  self-splicing fitness (ln): -2.59 ± 0.18
37 °C
  self-splicing fitness (ln): -2.07 ± 0.2

## AUUAAGCAAUAUUACGCGAG
30 °C
  self-splicing fitness (ln): -1.27 ± 0.1
37 °C
  self-splicing fitness (ln): -0.38 ± 0.097

## AGUUAGCAAUAUUACGUCGG
30 °C
  self-splicing fitness (ln): -3.45 ± 0.23
37 °C
  self-splicing fitness (ln): -1.67 ± 0.16

## CUGCAGCAAUAUUACGAGAA
30 °C
  self-splicing fitness (ln): -2.56 ± 0.35
37 °C
  self-splicing fitness (ln): -2.64 ± 0.33

## CUGCAGCAAUAUUACGGGGG
30 °C
  self-splicing fitness (ln): -2.95 ± 0.18
37 °C
  self-splicing fitness (ln): -2.6 ± 0.21

## GCUAAGCAAUAUUACGGCGU
30 °C
  self-splicing fitness (ln): -0.935 ± 0.068
37 °C
  self-splicing fitness (ln): -0.141 ± 0.091

## CAAUAGCAAUAUUACGGUAU
30 °C
  self-splicing fitness (ln): -3.15 ± 0.15
37 °C
  self-splicing fitness (ln): -2.42 ± 0.21

## GAGCAGCAAUAUUACGGCCU
30 °C
  self-splicing fitness (ln): -0.475 ± 0.07
37 °C
  self-splicing fitness (ln): -0.0538 ± 0.081

## AAGUAGCAAUAUUACGAACU
30 °C
  self-splicing fitness (ln): -0.525 ± 0.1
37 °C
  self-splicing fitness (ln): 0.139 ± 0.12

## CGUUAGCAAUAUUACGUUCC
37 °C
  self-splicing fitness (ln): -1.47 ± 0.45

## GAUGAGCAAUAUUACGUAGA
30 °C
  self-splicing fitness (ln): -3.51 ± 0.24
37 °C
  self-splicing fitness (ln): -1.88 ± 0.2

## GCUUAGCAAUAUUACGAGAC
30 °C
  self-splicing fitness (ln): -2.64 ± 0.22
37 °C
  self-splicing fitness (ln): -1.54 ± 0.18

## GCCCAGCAAUAUUACGGACG
30 °C
  self-splicing fitness (ln): -0.702 ± 0.07
37 °C
  self-splicing fitness (ln): -0.133 ± 0.097

## UUGAAGCAAUAUUACGAACC
30 °C
  self-splicing fitness (ln): -1.68 ± 0.24
37 °C
  self-splicing fitness (ln): -1.77 ± 0.44

## UAAUAGCAAUAUUACGUCCA
30 °C
  self-splicing fitness (ln): -0.695 ± 0.1
37 °C
  self-splicing fitness (ln): -0.122 ± 0.11

## UCGGAGCAAUAUUACGUGGU
30 °C
  self-splicing fitness (ln): -3.59 ± 0.39
37 °C
  self-splicing fitness (ln): -1.72 ± 0.34

## UCACAGCAAUAUUACGAUUU
30 °C
  self-splicing fitness (ln): -4.01 ± 0.21
37 °C
  self-splicing fitness (ln): -0.814 ± 0.11

## AGCAAGCAAUAUUACGACAG
30 °C
  self-splicing fitness (ln): -2.65 ± 0.14
37 °C
  self-splicing fitness (ln): -1.45 ± 0.15

## CUAGAGCAAUAUUACGCGAC
30 °C
  self-splicing fitness (ln): -0.657 ± 0.13
37 °C
  self-splicing fitness (ln): 0.181 ± 0.16

## ACUGAGCAAUAUUACGGAAG
30 °C
  self-splicing fitness (ln): -2.52 ± 0.13
37 °C
  self-splicing fitness (ln): -1.21 ± 0.2

## GAAAAGCAAUAUUACGACGC
30 °C
  self-splicing fitness (ln): -0.132 ± 0.069
37 °C
  self-splicing fitness (ln): 0.493 ± 0.093

## UGCCAGCAAUAUUACGGGUG
30 °C
  self-splicing fitness (ln): -2.99 ± 0.13
37 °C
  self-splicing fitness (ln): -2.98 ± 0.17

## UCGCAGCAAUAUUACGCGGA
37 °C
  self-splicing fitness (ln): -2.29 ± 0.25

## AAUCAGCAAUAUUACGCCAU
30 °C
  self-splicing fitness (ln): -2.35 ± 0.19
37 °C
  self-splicing fitness (ln): -1.76 ± 0.14

## AAACAGCAAUAUUACGCAAG
30 °C
  self-splicing fitness (ln): -2.56 ± 0.13
37 °C
  self-splicing fitness (ln): -1.8 ± 0.14

## CUUUAGCAAUAUUACGUAUG
30 °C
  self-splicing fitness (ln): -0.82 ± 0.11
37 °C
  self-splicing fitness (ln): -0.4 ± 0.12

## AGUAAGCAAUAUUACGACAA
30 °C
  self-splicing fitness (ln): -1.35 ± 0.17
37 °C
  self-splicing fitness (ln): -0.886 ± 0.17

## GCAAAGCAAUAUUACGAUUG
30 °C
  self-splicing fitness (ln): -3.55 ± 0.21
37 °C
  self-splicing fitness (ln): -1.28 ± 0.15

## CAAGAGCAAUAUUACGUCAA
30 °C
  self-splicing fitness (ln): -3.43 ± 0.43
37 °C
  self-splicing fitness (ln): -2.73 ± 0.25

## UCCCAGCAAUAUUACGGCUC
30 °C
  self-splicing fitness (ln): -2.83 ± 0.14
37 °C
  self-splicing fitness (ln): -2.31 ± 0.24

## GUUAAGCAAUAUUACGUUCC
30 °C
  self-splicing fitness (ln): -2.16 ± 0.18
37 °C
  self-splicing fitness (ln): -0.875 ± 0.23

## AAUAAGCAAUAUUACGCAAU
30 °C
  self-splicing fitness (ln): -1.59 ± 0.075
37 °C
  self-splicing fitness (ln): -1.22 ± 0.082

## AAGGAGCAAUAUUACGUGUA
37 °C
  self-splicing fitness (ln): -2.29 ± 0.27

## CACUAGCAAUAUUACGGAGC
30 °C
  self-splicing fitness (ln): -4.52 ± 0.28
37 °C
  self-splicing fitness (ln): -2.8 ± 0.15

## GCGUAGCAAUAUUACGGCAU
30 °C
  self-splicing fitness (ln): -0.91 ± 0.061
37 °C
  self-splicing fitness (ln): -0.0121 ± 0.072

## GGAGAGCAAUAUUACGCAUG
37 °C
  self-splicing fitness (ln): -0.0425 ± 0.28

## ACUAAGCAAUAUUACGUGUU
30 °C
  self-splicing fitness (ln): -3.63 ± 0.1
37 °C
  self-splicing fitness (ln): -2.2 ± 0.098

## UCUUAGCAAUAUUACGACGU
30 °C
  self-splicing fitness (ln): -0.316 ± 0.1
37 °C
  self-splicing fitness (ln): -0.505 ± 0.13

## UAUGAGCAAUAUUACGUGAA
30 °C
  self-splicing fitness (ln): -2.98 ± 0.33
37 °C
  self-splicing fitness (ln): -1.35 ± 0.17

## UCGUAGCAAUAUUACGGGCG
30 °C
  self-splicing fitness (ln): -2.12 ± 0.18
37 °C
  self-splicing fitness (ln): -1.11 ± 0.17

## UCGCAGCAAUAUUACGACGC
30 °C
  self-splicing fitness (ln): -1.81 ± 0.48

## CCGAAGCAAUAUUACGGCUG
30 °C
  self-splicing fitness (ln): -1.53 ± 0.092
37 °C
  self-splicing fitness (ln): -0.38 ± 0.11

## UUACAGCAAUAUUACGGUGA
30 °C
  self-splicing fitness (ln): -1.03 ± 0.099
37 °C
  self-splicing fitness (ln): -0.122 ± 0.14

## GCCUAGCAAUAUUACGACAG
30 °C
  self-splicing fitness (ln): -3.52 ± 0.29
37 °C
  self-splicing fitness (ln): -2.82 ± 0.28

## CAAAAGCAAUAUUACGUGGU
30 °C
  self-splicing fitness (ln): -3.65 ± 0.11
37 °C
  self-splicing fitness (ln): -2.49 ± 0.11

## UCGCAGCAAUAUUACGGGCU
30 °C
  self-splicing fitness (ln): -3.71 ± 0.17
37 °C
  self-splicing fitness (ln): -2.63 ± 0.16

## GAAGAGCAAUAUUACGCAGG
30 °C
  self-splicing fitness (ln): -1.89 ± 0.32

## UCGUAGCAAUAUUACGUUCA
30 °C
  self-splicing fitness (ln): -1.39 ± 0.097
37 °C
  self-splicing fitness (ln): -0.421 ± 0.11

## UUCAAGCAAUAUUACGUGCG
30 °C
  self-splicing fitness (ln): -1.48 ± 0.092
37 °C
  self-splicing fitness (ln): -0.425 ± 0.088

## GGUUAGCAAUAUUACGGCGC
30 °C
  self-splicing fitness (ln): 0.645 ± 0.28
37 °C
  self-splicing fitness (ln): -0.634 ± 0.25

## AUAAAGCAAUAUUACGCCAC
30 °C
  self-splicing fitness (ln): -1.94 ± 0.38

## CCUCAGCAAUAUUACGUGUC
30 °C
  self-splicing fitness (ln): -3.35 ± 0.13
37 °C
  self-splicing fitness (ln): -2.48 ± 0.2

## ACGGAGCAAUAUUACGGAGC
30 °C
  self-splicing fitness (ln): -1.67 ± 0.34

## CGAGAGCAAUAUUACGGAUU
30 °C
  self-splicing fitness (ln): -2.72 ± 0.39

## CAGGAGCAAUAUUACGUGAA
30 °C
  self-splicing fitness (ln): -3.52 ± 0.38
37 °C
  self-splicing fitness (ln): -3.2 ± 0.43

## CCGAAGCAAUAUUACGUCUA
30 °C
  self-splicing fitness (ln): -3.69 ± 0.35
37 °C
  self-splicing fitness (ln): -2.25 ± 0.3

## AACCAGCAAUAUUACGCGCG
30 °C
  self-splicing fitness (ln): -0.385 ± 0.082
37 °C
  self-splicing fitness (ln): 0.256 ± 0.11

## UCGAAGCAAUAUUACGGACG
30 °C
  self-splicing fitness (ln): -0.371 ± 0.13
37 °C
  self-splicing fitness (ln): 0.158 ± 0.12
